# Assay results reported in PMC9882641.
# How the values were obtained:
# Assay in all cases: enzyme inhibition assay (chromogenic substrate, fit to Morrison's tight binding equation); MMP-2ACT (0.6 nM), MMP-9CAT (3 nM) or MMP-14CAT (1 nM) incubated with 0-25 nM N-TIMP2 variant for 1 h at 37 C in 50 mM HEPES, 10 mM CaCl2, 0.05% Brij-35, 1 mM DTNB, pH 7.5; then 100 uM chromogenic substrate, absorbance at 412 nm; three independent experiments
# [1] = target: activated MMP-2 (MMP-2ACT) (human) (UniProt P08253)
# [2] = target: human MMP-14 catalytic domain (MMP-14CAT) (human) (UniProt P50281)
# [3] = target: human MMP-9 catalytic domain (MMP-9CAT) (human) (UniProt P14780)
Substance,Ki [1],Ki [2],Ki [3]
N-TIMP2-S2DOPA (from UniProt P16035 27-153) (domain or fragment),3.14 nM,14.6 nM,0.623 nM
N-TIMP2-A70HqAla (from UniProt P16035 27-153) (domain or fragment),16.7 nM,27.2 nM,1.93 nM
N-TIMP2-A70DOPA (from UniProt P16035 27-153) (domain or fragment),0.785 nM,10.6 nM,0.452 nM
N-TIMP2-S2HqAla (from UniProt P16035 27-153) (domain or fragment),97.7 nM,97.7 nM,70.4 nM
N-TIMP2-L100DOPA (from UniProt P16035 27-153) (domain or fragment),1 nM,14.2 nM,0.849 nM

# These reach a lower Ki [1]. Values come first.
Ki [1],Ki [2],Ki [3],Substance
0.606 nM,11.5 nM,0.449 nM,N-TIMP2-S69HqAla (from UniProt P16035 27-153) (domain or fragment)
0.46 nM,21.4 nM,0.468 nM,N-TIMP2-S69DOPA (from UniProt P16035 27-153) (domain or fragment)
0.413 nM,4.72 nM,0.543 nM,N-TIMP2-Y36HqAla (from UniProt P16035 27-153) (domain or fragment)
